T1: human Eotaxin 3 (human, UniProt Q9Y258 24-94)
T1 sequence (looked up): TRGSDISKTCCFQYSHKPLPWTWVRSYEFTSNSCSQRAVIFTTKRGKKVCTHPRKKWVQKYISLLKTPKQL

T2: human Eotaxin 2 (human, UniProt O00175 27-104, limits assumed)
T2 sequence (looked up): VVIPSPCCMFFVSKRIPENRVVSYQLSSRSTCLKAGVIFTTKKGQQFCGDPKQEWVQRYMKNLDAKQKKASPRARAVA

T3: human MCP-2 (human, UniProt P80075 24-99)
T3 construct: also called CCL8
T3 sequence (looked up): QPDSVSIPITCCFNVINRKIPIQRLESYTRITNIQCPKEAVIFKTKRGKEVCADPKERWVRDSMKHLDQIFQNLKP


Tests used:
human MCP-3 [1] = target: T4, human MCP-3 (human, UniProt P80098 24-99); assay: BIAcore
T4 construct: also called CCL7

human Eotaxin 1 [2] = target: T5, human Eotaxin 1 (human, UniProt P51671 24-97); assay: BIAcore
human MCP-4 [3] = target: T6, human MCP-4 (human, UniProt Q99616 24-98, limits assumed); assay: BIAcore
T6 construct: also called CCL13

human Eotaxin 3 [4] = target: T1, human Eotaxin 3; assay: BIAcore
human Eotaxin 2 [5] = target: T2, human Eotaxin 2; assay: BIAcore
human MCP-3 [6] = target: T4, human MCP-3; assay: Biacore, IgG capture mode
human Eotaxin 1 [7] = target: T5, human Eotaxin 1; assay: Biacore, IgG capture mode
human MCP-4 [8] = target: T6, human MCP-4; assay: Biacore, IgG capture mode
human Eotaxin 3 [9] = target: T1, human Eotaxin 3; assay: Biacore, IgG capture mode
human MCP-2 [10] = target: T3, human MCP-2; assay: Biacore, IgG capture mode
human Eotaxin 2 [11] = target: T2, human Eotaxin 2; assay: Biacore, IgG capture mode
[12] = target: T7, Human Monocyte Chemoattractant Protein-1 (MCP-1) (human, UniProt P13500 24-99, 125I label on the radioligand form; letters are the unlabelled wild-type protein); assay: IGEN (BioVeris), MCP-1 Kd
T7 construct: also called CCL-2; CCL2
Procedure: (§1) Affinity determination in solution was basically performed as described in the literature (Friguet et al., 1985). In order to improve the sensitivity and accuracy of the SET method, it was transferred from classical ELISA to ECL based BioVeris technology (Haenel et al., 2005, accepted for publication in Analytical Biochemistry). 1 mg/ml goat-anti-human (Fab)₂ or goat-anti-mouse IgG, Fc fragment specific antibodies (Jackson Immuno Research) were labelled with BV-tag™ NHS-Ester (Bioveris Europe, Witney, Oxfordshire, UK) according to manufacturer's instructions. The experiments were carried out in polypropylene microtiter plates and PBS pH 7.4 with 0.5% BSA and 0.02% Tween 20 as assay buffer. Unlabeled antigen was diluted in 4ⁿ series: For human and cyno MCP-1 a concentration range of 10 pM to 40 nM and for cross-reactivity controls (Eotaxin and MCP-2) a concentration range of 40 pM to 160 nM was chosen. Wells without antigen were used to determine Smax values. After addition of 100 pM Fab or IgG (final concentration in 75 μL final volume), the mixture was incubated for 2 hours at RT. Subsequently a mixture of 25 μl Dynabeads (0.4 mg/ml M-280 Streptavidin, DYNAL, Hamburg), coated with 0.25 μg/ml biotinylated MCP-1 (K69) and BV-tag labeled detection antibody in a final dilution of 1:4000 for anti-human Fab or 1:2000 for anti-mouse IgG were added per well.
(§2) Solution Equilibrium Titration Using BioVeris. As an alternative method for sensitive KD determinations, the solution equilibrium titration (SET) using BioVeris technology was performed. Monovalent dissociation constants were calculated by means of appropriate fit models for Fab and IgG. This method was suitable for affinity measurement and cross-reactivity studies. All selected 16 binders were analyzed by solution equilibrium titration (SET) using BioVeris (Table 5 and Table 6) and these affinity values were regarded as the final affinity values.

[13] = target: T7, Human Monocyte Chemoattractant …; assay: cell-based or functional assay
[14] = target: T7, Human Monocyte Chemoattractant …; assay: BioVeris solution equilibrium titration, Fab, rh MCP-1
Procedure: as §1, §2

cynomolgus monkey MCP-1 [15] = target: T8, cynomolgus monkey MCP-1 (cynomolgus monkey, UniProt P61274 24-99); assay: BioVeris solution equilibrium titration, Fab, cyno MCP-1
T8 construct: also called cyno MCP-1; cyno CCL-2
Procedure: as §1, §2

[16] = target: T7, Human Monocyte Chemoattractant …; assay: 125I-MCP-1 binding to CCR2 on THP-1 cells, radioligand competition
cynomolgus monkey MCP-1 [17] = target: T8, cynomolgus monkey MCP-1; assay: BioVeris, Cyno MCP-1 Kd
Procedure: as §1, §2

cynomolgus monkey MCP-1 [18] = target: T8, cynomolgus monkey MCP-1; assay: BioVeris solution equilibrium titration, IgG1, cyno MCP-1
Procedure: as §1, §2

[19] = target: T7, Human Monocyte Chemoattractant …; assay: BioVeris solution equilibrium titration, IgG1, rh MCP-1
Procedure: as §1, §2

human MCP-2 [20] = target: T3, human MCP-2; assay: 125I-MCP-2 binding to CCR2 on Thp-1 cells, radioligand competition

T4 sequence (P80098 24-99 limits assumed): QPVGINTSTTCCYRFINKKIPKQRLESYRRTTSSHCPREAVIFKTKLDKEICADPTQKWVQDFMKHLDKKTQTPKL
T5 sequence (P51671 24-97 limits assumed): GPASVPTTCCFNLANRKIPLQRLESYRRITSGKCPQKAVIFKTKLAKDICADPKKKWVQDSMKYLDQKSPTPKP
T6 sequence (Q99616 24-98 limits assumed): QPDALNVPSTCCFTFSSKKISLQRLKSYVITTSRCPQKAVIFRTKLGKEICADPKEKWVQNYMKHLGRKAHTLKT
T7 sequence (P13500 24-99 limits assumed): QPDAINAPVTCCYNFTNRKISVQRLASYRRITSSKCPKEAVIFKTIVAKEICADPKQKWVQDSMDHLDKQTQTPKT
T8 sequence (P61274 24-99 limits assumed): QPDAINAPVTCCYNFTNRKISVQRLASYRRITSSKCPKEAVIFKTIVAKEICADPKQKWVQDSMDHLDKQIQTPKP

Row | Binder | binding result (human MCP-3 [6]) | binding result (human MCP-4 [8]) | binding result (human Eotaxin 3 [9]) | binding result (human Eotaxin 2 [11]) | Kd [12] [nM] | Inhibition of Ca2+ Mobilization IC50 [13] [nM] | Kd [14] [nM] | IC50 [16] [nM] | Kd (cynomolgus monkey MCP-1 [17]) [nM] | Kd (cynomolgus monkey MCP-1 [18]) [nM] | Kd [19] [nM] | other results
1 | CNTO 888 (antibody, V domains shown, Fully human IgG1 kappa) VH: QVQLVQSGAEVKKPGSSVKVSCKASGGTFSSYGISWVRQAPGQGLEWMGGIIPIFGTANYAQKFQGRVTITADESTSTAYMELSSLRSEDTAVYYCARYDGIYGELDFWGQGTLVTVSS VL: not shown |  |  |  |  |  |  |  |  |  |  |  | binding result (human MCP-3 [1]): no binding; binding result (human Eotaxin 1 [2]): no binding; binding result (human MCP-4 [3]): no binding; binding result (human Eotaxin 3 [4]): no binding; binding result (human Eotaxin 2 [5]): no binding
2 | MOR03849 IgG (antibody, V domains shown) VH: QVELVQSGAEVKKPGSSVKVSCKASGGTFSSYGISWVRQAPGQGLEWMGAINPLAGHTHYAQKFQGRVTITADESTSTAYMELSSLRSEDTAVYYCARYDGIYGELDFWGQGTLVTVSS VL: not shown | no binding (tested: 100 nM) | no binding (tested: 100 nM) | no binding (tested: 100 nM) | no binding (tested: 100 nM) |  |  |  |  |  |  |  | binding result (human Eotaxin 1 [7]): no binding (tested: 100 nM); binding result (human MCP-2 [10]): no binding (tested: 100 nM)
3 | MOR03878 Fab (Fab, V domains shown, MOR03471 cross-clone (3822 × 3794); Fab with C-terminal FLAG and 6x His tags; also called MOR3878; MOR3878k) VH: QVELVQSGAEVKKPGSSVKVSCKASGGTFSSYGISWVRQAPGQGLEWMGAINPLAGHTHYAQKFQGRVTITADESTSTAYMELSSLRSEDTAVYYCARYDGIYGELDFWGQGTLVTVSS VL: not shown |  |  |  |  | 0.32 | 20.2 | 0.32 | 0.11 | 0.32 |  |  | Kd (cynomolgus monkey MCP-1 [15]): 0.32 nM
4 | MOR03899 Fab (Fab, V domains shown, MOR03471 cross-clone (3822 × 3876); Fab with C-terminal FLAG and 6x His tags; also called MOR3899; MOR3899k) VH: QVELVQSGAEVKKPGSSVKVSCKASGGTFSSYGISWVRQAPGQGLEWMGAINPLAGHTHYAQKFQGRVTITADESTSTAYMELSSLRSEDTAVYYCARYDGIYGELDFWGQGTLVTVSS VL: not shown |  |  |  |  | 0.81 | 17.5 | 0.81 | 0.13 | 0.49 |  |  | Kd (cynomolgus monkey MCP-1 [15]): 0.49 nM
5 | MOR03899 IgG1 (antibody, V domains shown, Human IgG1; also called MOR3899 IgG1; MOR3899k IgG) VH: QVELVQSGAEVKKPGSSVKVSCKASGGTFSSYGISWVRQAPGQGLEWMGAINPLAGHTHYAQKFQGRVTITADESTSTAYMELSSLRSEDTAVYYCARYDGIYGELDFWGQGTLVTVSS VL: not shown | no binding (tested: 100 nM) | no binding (tested: 100 nM) | no binding (tested: 100 nM) | no binding (tested: 100 nM) | 0.34 | 5.85 |  | 0.05 | 0.36 | 0.36 | 0.34 | 
6 | MOR03781 IgG1 (antibody, V domains shown, Human IgG1; also called MOR3781 IgG1; MOR3781k IgG) VH: QVELVQSGAEVKKPGSSVKVSCKASGGTFSSYGISWVRQAPGQGLEWMGGIIPIFGTANYAQKFQGRVTITADESTSTAYMELSSLRSEDTAVYYCARYDGIYGELDFWGQGTLVTVSS VL: not shown | no binding (tested: 100 nM) | no binding (tested: 100 nM) | no binding (tested: 100 nM) | no binding (tested: 100 nM) | 0.02 | 10.9 |  | 0.02 | 0.02 | 0.016 | 0.02 | binding result (human Eotaxin 1 [7]): no binding (tested: 100 nM)
7 | MOR03878 IgG1 (antibody, V domains shown, Human IgG1; also called MOR3878 IgG1; MOR3878k IgG) VH: QVELVQSGAEVKKPGSSVKVSCKASGGTFSSYGISWVRQAPGQGLEWMGAINPLAGHTHYAQKFQGRVTITADESTSTAYMELSSLRSEDTAVYYCARYDGIYGELDFWGQGTLVTVSS VL: not shown | no binding (tested: 100 nM) | no binding (tested: 100 nM) | no binding (tested: 100 nM) | no binding (tested: 100 nM) | 0.27 | 6.7 |  | 0.03 | 0.23 | 0.23 | 0.27 | 
8 | MOR03850 IgG1 (antibody, V domains shown, Human IgG1; also called MOR3850 IgG1; MOR3850k IgG) VH: QVELVQSGAEVKKPGSSVKVSCKASGGTFSSYGISWVRQAPGQGLEWMGAINPLAGHTHYAQKFQGRVTITADESTSTAYMELSSLRSEDTAVYYCARYDGIYGELDFWGQGTLVTVSS VL: not shown | no binding (tested: 100 nM) | no binding (tested: 100 nM) | no binding (tested: 100 nM) | no binding (tested: 100 nM) | 0.01 | 9.47 |  | 0.05 | 0.01 | 0.021 | 0.011 | 
9 | MOR03781 Fab (Fab, V domains shown, MOR03471 derivative (L-CDR3); Fab with C-terminal FLAG and 6x His tags; also called MOR3781; MOR3781k) VH: QVELVQSGAEVKKPGSSVKVSCKASGGTFSSYGISWVRQAPGQGLEWMGGIIPIFGTANYAQKFQGRVTITADESTSTAYMELSSLRSEDTAVYYCARYDGIYGELDFWGQGTLVTVSS VL: not shown |  |  |  |  | 0.03 | 21.8 | 0.03 | 0.18 | 0.01 |  |  | 
10 | MOR03885 IgG (antibody, V domains shown) VH: QVELVQSGAEVKKPGSSVKVSCKASGGTFSSYGISWVRQAPGQGLEWMGAINPLAGHTHYAQKFQGRVTITADESTSTAYMELSSLRSEDTAVYYCARYDGIYGELDFWGQGTLVTVSS VL: not shown | no binding (tested: 100 nM) | no binding (tested: 100 nM) | no binding (tested: 100 nM) | no binding (tested: 100 nM) |  |  |  |  |  |  |  | binding result (human Eotaxin 1 [7]): no binding (tested: 100 nM); binding result (human MCP-2 [10]): no binding (tested: 100 nM)
11 | MOR03850 Fab (Fab, V domains shown, MOR03471 cross-clone (3822 × 3819); Fab with C-terminal FLAG and 6x His tags; also called MOR3850; MOR3850k) VH: QVELVQSGAEVKKPGSSVKVSCKASGGTFSSYGISWVRQAPGQGLEWMGAINPLAGHTHYAQKFQGRVTITADESTSTAYMELSSLRSEDTAVYYCARYDGIYGELDFWGQGTLVTVSS VL: not shown |  |  |  |  | 0.04 | 28.4 | 0.04 | 0.16 | 0.04 |  |  | Kd (cynomolgus monkey MCP-1 [15]): 0.04 nM
12 | MOR03754 Fab (Fab, V domains shown) VH: QVQLVESGGGLVQPGGSLRLSCAASGFTFRSYGMSWVRQAPGKGLEWVSSIEHKWSGYATTYAASVKGRFTISRDNSKNTLYLQMNSLRAEDTAVYYCARFEFTPWTYFDFWGQGTLVTVSS VL: DIELTQPPSVSVAPGQTARISCSGDNLGKKYVYWYQQKPGQAPVLVIYDDDNRPSGIPERFSGSNSGNTATLTISGTQAEDEADYYCQSYTAQSSASFGGGTKLTVL |  |  |  |  |  |  |  |  |  |  |  | IC50 (human MCP-2 [20]): ≥ 2000 nM

Source: patent US20100254992A1 (published 2010)
